Data reported in patent KR20180079232A (dated 2018).

Biological target: T1, L1CAM (L1 cell adhesion molecule, CD171), human (human, UniProt P32004 20-1257)
T1 construct: whole, on cells; The target sat on L1CAM-expressing cells (SCK-L1, Choi-CK, TFK-1); For the western blots it was the membrane protein fraction of those cells after SDS-PAGE; also called 막 L1CAM; membrane L1CAM
Test: confocal microscopy of L1CAM-expressing cells treated with Ab417 (10 ㎍/mL); surface-bound antibody detected with anti-human IgG

T1 sequence (P32004 20-1257): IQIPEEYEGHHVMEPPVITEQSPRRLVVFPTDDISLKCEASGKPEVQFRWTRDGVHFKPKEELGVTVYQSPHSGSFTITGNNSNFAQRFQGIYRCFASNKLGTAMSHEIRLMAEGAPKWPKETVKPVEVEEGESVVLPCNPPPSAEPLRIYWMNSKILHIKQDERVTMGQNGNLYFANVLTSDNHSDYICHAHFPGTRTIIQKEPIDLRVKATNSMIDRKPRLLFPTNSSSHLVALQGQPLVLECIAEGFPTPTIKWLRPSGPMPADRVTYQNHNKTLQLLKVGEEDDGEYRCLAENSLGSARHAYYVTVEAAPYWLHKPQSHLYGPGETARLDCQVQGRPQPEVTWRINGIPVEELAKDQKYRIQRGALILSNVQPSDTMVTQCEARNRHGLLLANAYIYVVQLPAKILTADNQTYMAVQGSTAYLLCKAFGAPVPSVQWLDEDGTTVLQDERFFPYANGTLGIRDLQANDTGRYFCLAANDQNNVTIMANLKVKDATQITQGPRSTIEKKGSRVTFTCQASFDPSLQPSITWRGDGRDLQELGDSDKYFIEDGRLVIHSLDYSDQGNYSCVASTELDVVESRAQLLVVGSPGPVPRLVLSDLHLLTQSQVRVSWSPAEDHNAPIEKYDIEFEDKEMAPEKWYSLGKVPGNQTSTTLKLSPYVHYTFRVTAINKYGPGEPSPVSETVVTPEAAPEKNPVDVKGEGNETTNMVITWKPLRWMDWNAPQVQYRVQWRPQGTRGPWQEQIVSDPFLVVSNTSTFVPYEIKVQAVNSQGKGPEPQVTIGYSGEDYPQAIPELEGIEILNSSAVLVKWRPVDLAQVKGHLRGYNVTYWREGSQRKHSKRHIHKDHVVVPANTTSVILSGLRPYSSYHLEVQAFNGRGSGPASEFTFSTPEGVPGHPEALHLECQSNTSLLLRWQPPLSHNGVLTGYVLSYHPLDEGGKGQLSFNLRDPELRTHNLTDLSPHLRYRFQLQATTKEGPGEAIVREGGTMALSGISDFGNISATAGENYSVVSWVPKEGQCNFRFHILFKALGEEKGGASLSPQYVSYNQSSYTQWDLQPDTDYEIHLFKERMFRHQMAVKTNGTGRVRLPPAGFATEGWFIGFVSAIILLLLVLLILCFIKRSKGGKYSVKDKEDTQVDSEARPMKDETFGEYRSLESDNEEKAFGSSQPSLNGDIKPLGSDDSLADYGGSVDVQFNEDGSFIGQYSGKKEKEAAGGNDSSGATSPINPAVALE

B1: Ab417 항체 (anti-L1CAM antibody Ab417) (antibody, V domains shown)
VH: EVQLVESGGGVVQPGRSLRLSCAASGFTFSRFGMHWVRQAPGKGLEWVAFISNDGSNKYYADSVKGRFTISRDNSKNTLYLQMNSLRPEDTAVYYCARGRAYGSGSLFDPWGQGTLVTVSS
VL: DIQLTQSPSSLSASVGDRVTITCRASRTISIYVNWYRQRPGKAPESLIYAASNLHSGVPSRFSGSGSGTDFTLTISSLQPEDFATYYCQQSIGRGVVTFGQGTKLEIK
notes: It is a whole antibody made in CHO-DG44 cell line #9-20 and purified on protein A. It was detected with anti-human IgG (H+L) and anti-human IgG (Fc-specific)
binding result: binds
